Results from paper PMC8421406, “C9orf72-derived arginine-rich poly-dipeptides impede phase modifiers” (Nature Communications, 2021).

Assays:
Kapβ2 = assay: Solution NMR (1H-13C methyl) of labelled Kapβ2; assay type: binding; conditions: comparison of perturbations by PR20, M9M and FUS-ΔNLS
Method: The Kapβ2 expression plasmid was transformed into BL21(DE3) cells. The protein samples with ^1H,^13C-labeled methyl groups in deuterium background were prepared as described in a previous study. The cells were grown in medium with ^15NH4Cl (2 gL^−1, CIL) and ^2H7-glucose (2 g L^−1, CIL) in 99.9% ^2H2O (Isotec). The precursors for methyl groups of Ile, Val, and Leu, α-ketobutyric acid (50 mg L^−1) and α-ketoisovaleric acid (80 mg L^−1), and [^13CH3] methionine (50 mg L^−1) were added to the culture 1 h before the addition of IPTG. Protein expression was induced by the addition of 0.5 mM IPTG at OD600 ~ 0.6, followed by ~16 h of incubation at 25 °C. […] Protein concentration was determined spectrophotometrically at 280 nm using a corresponding extinction coefficient.
The isotopically labeled Kapβ2 was prepared in the NMR buffer containing 20 mM ^2H-Tris pH 7.4, 150 mM NaCl, 2 mM MgCl2, 2 mM DTT, and 2% glycerol, concentrated to 20 μM. […] Perturbation of the side chain methyl resonances were each monitored using ^1H-^13C heteronuclear multiple quantum coherence. […] The perturbations of the resonances were evaluated based on chemical shift change or intensity change. […]
In order to investigate the interaction between Kapβ2 and PR poly-dipeptide by NMR, the NMR spectra of the isotopically labeled Kapβ2 in the absence and presence of the synthetic peptide of PR20:HA were measured. […]

[1] = system: MBP:FUS (full-length FUS droplets) / Kapβ2; assay: Turbidity assay of FUS droplet formation (OD 395 nm); assay type: biochemical; conditions: 8 μM Kapβ2, 8 μM MBP:FUS
[2] = system: FUS droplets (MBP:FUS/MBP:FUS:EGFP) / Kapβ2; assay: Fluorescence microscopy of FUS droplets; assay type: biochemical; conditions: 16 μM Kapβ2, 16 μM Kapβ2–M9M complex, 50 μM PR20, repeated three times
[3] = system: GFP:FUS-LC:NLS / mCh:FUS-LC hydrogel; assay: Hydrogel binding assay, GFP:FUS-LC:NLS on mCh:FUS-LC hydrogel; assay type: biochemical; conditions: Kapβ2 0.1-1.0 µM; PR20 with 1.0 µM Kapβ2
Method: The experiment was independently repeated three times with similar results. Here, 10 μm scale bars are shown in the image. e Graphical description of hydrogel binding assay. Hydrogels of mCh:LC-domain accumulate GFP:LC-domain as it co-polymerizes. f Hydrogel binding assay for FUS-LC in the absence and presence of Kapβ2. mCh:FUS-LC (lower images) were incubated with 1.0 µM of GFP (left panel) or 1.0 µM of GFP:FUS-LC:NLS (right panel) in the presence of different concentrations of Kapβ2 (left to right: 0.1, 0.3, and 1.0 µM). g Quantitative analysis of Fig. 1f. Relative intensity of GFP signals is shown as the mean of three independent experiments ± SD, analyzed by one-way ANOVA followed by Dunnett’s multiple comparison test (**P < 0.01, ***P < 0.001). h Hydrogel binding assay for FUS-LC in the absence and presence of Kapβ2 and/or PR20. Hydrogel droplets of mCh:FUS-LC (lower images) were incubated with 1.0 µM of GFP (left panel) or GFP:FUS-LC:NLS (right panel). GFP:FUS-LC:NLS containing Kapβ2 (1.0 µM) was challenged for homotypic polymer extension in the absence or presence of different concentration of PR20. i Quantitative analysis of Fig. 1h. Relative intensity of GFP signals is shown as the mean of three independent experiments ± SD, analyzed by one-way ANOVA followed by Dunnett’s multiple comparison test (**P < 0.01). Source data are provided as a Source Data file. […]

[4] = system: GFP:FUS-LC / mCh:FUS-LC hydrogel; assay: Hydrogel binding assay, GFP:FUS-LC on mCh:FUS-LC hydrogel; assay type: biochemical; conditions: Kapβ2 0.1-10.0 µM; 1.0 µM GFP:FUS-LC
From the text: Expression plasmids for recombinant proteins (GFP/mCherry fusion LC-domain of FUS (residue 2–214, GFP/mCh:FUS-LC) and GFP/mCherry fusion LC-domain of hnRNPA2 (residue 181–341, GFP/mCh:hnRNPA2-LC)) were obtained from the Steven L. McKnight Laboratory. Expression plasmid for GFP:FUS-LC fusion NLS (residue 501–526, GFP:FUS-LC:NLS), mCh fusion LC-domain of TDP43 (residue 262–414, mCh:TDP43-LC), and GFP-tagged cNLS (residue 78–99) fusion TDP43-LC (GFP:cNLS:TDP43-LC) were constructed using In-Fusion HD Cloning Kit (Takara Bio, Inc.). GFP/mCh:FUS-LC, GFP:FUS-LC:NLS, and GFP/mCh:hnRNPA2-LC were expressed in E. coli BL21(DE3) cells with 0.5 mM IPTG at 20 °C overnight and purified by Ni-NTA Agarose (FUJIFILM Wako Pure Chemical Corporation), as described in a previous study. GFP:cNLS:TDP43-LC were expressed with 1.0 mM IPTG at 37 °C for 3 h and mCh:TDP43-LC were expressed with 0.5 mM IPTG at 16 °C overnight. GFP:cNLS:TDP43-LC and mCh:TDP43-LC were purified by Ni-NTA as described in a previous study[48] with some modifications. […] Relative intensity of GFP signals across the hydrogel droplets were measured in triplicate by using the profile plot mode in ImageJ. […]

Molecule | Binding site on Kapβ2 by NMR (Kapβ2) | Effect of Kapβ2 on FUS droplet formation (turbidity) [1] | Effect on FUS droplets (microscopy) [2] | Effect on hydrogel binding of GFP:FUS-LC:NLS [3] | Effect on hydrogel binding of GFP:FUS-LC [4]
FUS-ΔNLS: FUS (1-500, FUS-ΔNLS) (protein, left off: MBP, end not stated, state not stated) MASNDYTQQATQSYGAYPTQPGQGYSQQSSQPYGQQSYSGYSQSTDTSGYGQSSYSSYGQSQNTGYGTQSTPQGYGSTGGYGSSQSSQSSYGQQSSYPGYGQQPAPSSTSGSYGSSSQSSSYGQPQSGSYSQQPSYGGQQQSYGQQQSYNPPQGYGQQNQYNSSSGGGGGGGGGGNYGQDQSSMSSGGGSGGGYGNQDQSGGGGSGGYGQQDRGGRGRGGSGGGGGGGGGGYNRSSGGYEPRGRGGGRGGRGGMGGSDRGGFNKFGGPRDQGSRHDSEQDNSDNNTIFVQGLGENVTIESVADYFKQIGIIKTNKKTGQPMINLYTDRETGKLKGEATVSFDDPPSAKAAIDWFDGKEFSGNPIKVSFATRRADFNRGGGNGRGGRGRGGPMGRGGYGGGGSGGGGRGGFPSGGGGGGGQQRAGDWKCPNPTCENMNFSWRNECNQCKAPKPDGPGGGPGGSHMGGNYGDDRRGGRGGYDRGGYRGRGGDRGGFRGGRGG | the binding site for FUS-ΔNLS does not overlap with that for PR20 |  |  |  | 
Kapβ2: nuclear import receptor karyopherin-β2, recombinant (protein, left off: GST, end not stated, cleaved, nuclear import receptor karyopherin-β2, recombinant) MVWDRQTKMEYEWKPDEQGLQQILQLLKESQSPDTTIQRTVQQKLEQLNQYPDFNNYLIFVLTKLKSEDEPTRSLSGLILKNNVKAHFQNFPNGVTDFIKSECLNNIGDSSPLIRATVGILITTIASKGELQNWPDLLPKLCSLLDSEDYNTCEGAFGALQKICEDSAEILDSDVLDRPLNIMIPKFLQFFKHSSPKIRSHAVACVNQFIISRTQALMLHIDSFIENLFALAGDEEPEVRKNVCRALVMLLEVRMDRLLPHMHNIVEYMLQRTQDQDENVALEACEFWLTLAEQPICKDVLVRHLPKLIPVLVNGMKYSDIDIILLKGDVEEDETIPDSEQDIRPRFHRSRTVAQQHDEDGIEEEDDDDDEIDDDDTISDWNLRKCSAAALDVLANVYRDELLPHILPLLKELLFHHEWVVKESGILVLGAIAEGCMQGMIPYLPELIPHLIQCLSDKKALVRSITCWTLSRYAHWVVSQPPDTYLKPLMTELLKRILDSNKRVQEAACSAFATLEEEACTELVPYLAYILDTLVFAFSKYQHKNLLILYDAIGTLADSVGHHLNKPEYIQMLMPPLIQKWNMLKDEDKDLFPLLECLSSVATALQSGFLPYCEPVYQRCVNLVQKTLAQAMLNNAQPDQYEAPDKDFMIVALDLLSGLAEGLGGNIEQLVARSNILTLMYQCMQDKMPEVRQSSFALLGDLTKACFQHVKPCIADFMPILGTNLNPEFISVCNNATWAIGEISIQMGIEMQPYIPMVLHQLVEIINRPNTPKTLLENTAITIGRLGYVCPQEVAPMLQQFIRPWCTSLRNIRDNEEKDSAFRGICTMISVNPSGVIQDFIFFCDAVASWINPKDDLRDMFCKILHGFKNQVGDENWRRFSDQFPLPLKERLAAFYGV |  | kept FUS from changing into liquid-like droplets | FUS droplets are dissolved by Kapβ2 | blocked by Kapβ2 | not blocked
